{"source": "paper PMC2879449", "about": "(Biochemistry, 2010)", "proteins": {"B1": {"name": "WlbB, an N-acetyltransferase from Bordetella petrii (enzyme, UniProt A9IH93 1-190, looked up)", "chain": "MATIHPTAIVDEGARIGAHSRIWHWVHICGGAEIGEGCSLGQNVFVGNRVRIGNRVKIQNNVSVYDNVFLEDDVFCGPSMVFTNVYNPRAAIERKSEYRDTIVRQGATLGANCTVVCGATIGRYAFVGAGAVVNKDVPDFALVVGVPARQIGWMSRHGEQLDLPLRGNAEATCPHTGERYILTDGVCRLA"}}, "biological_target": "the molecule itself", "experiment": "crystal structure"}
{"protein": "B1", "values": [{"measurement": "stoichiometry N", "value": 3}]}
